Results: publication PMC3365014, “Specific Recognition of p53 Tetramers by Peptides Derived from p53 Interacting Proteins” (PLoS ONE, 2012)

Columns and labels:
[1] = molecular target: WS100B(61–75), fluorescein-labeled; assay: fluorescence polarisation; fluorescence anisotropy at increasing NaCl; p53CTD titrated into 200 nM peptide; 10 mM sodium phosphate pH 7.2, 25°C; ln(Kd) against ln(NaCl activity) fit linearly and extrapolated to physiological ionic strength
[2] = molecular target: p53 monomer (Homo sapiens) (UniProt P04637); settings: cited from earlier work

Substance	Estimated physiological Kd [1] [µM]	Kd [2] [nM]
p53 C-terminal domain (p53CTD, residues 293–393) (from UniProt P04637 293-393) (domain or fragment)	19	–
p53 monomer (from UniProt P04637)	–	1
